Experimental findings from paper PMC10942865 (2024) are described below.

To fix the notation:
B1: Flag-PLK4 wt (polo-like kinase 4), full-length [human] / DCAF1 (VprBP), endogenous [human (endogenous in HEK293T)] (parent complex)
chain 1: MATCIGEKIEDFKVGNLLGKGSFAGVYRAESIHTGLEVAIKMIDKKAMYKAGMVQRVQNEVKIHCQLKHPSILELYNYFEDSNYVYLVLEMCHNGEMNRYLKNRVKPFSENEARHFMHQIITGMLYLHSHGILHRDLTLSNLLLTRNMNIKIADFGLATQLKMPHEKHYTLCGTPNYISPEIATRSAHGLESDVWSLGCMFYTLLIGRPPFDTDTVKNTLNKVVLADYEMPSFLSIEAKDLIHQLLRRNPADRLSLSSVLDHPFMSRNSSTKSKDLGTVEDSIDSGHATISTAITASSSTSISGSLFDKRRLLIGQPLPNKMTVFPKNKSSTDFSSSGDGNSFYTQWGNQETSNSGRGRVIQDAEERPHSRYLRRAYSSDRSGTSNSQSQAKTYTMERCHSAEMLSVSKRSGGGENEERYSPTDNNANIFNFFKEKTSSSSGSFERPDNNQALSNHLCPGKTPFPFADPTPQTETVQQWFGNLQINAHLRKTTEYDSISPNRDFQGHPDLQKDTSKNAWTDTKVKKNSDASDNAHSVKQQNTMKYMTALHSKPEIIQQECVFGSDPLSEQSKTRGMEPPWGYQNRTLRSITSPLVAHRLKPIRQKTKKAVVSILDSEEVCVELVKEYASQEYVKEVLQISSDGNTITIYYPNGGRGFPLADRPPSPTDNISRYSFDNLPEKYWRKYQYASRFVQLVRSKSPKITYFTRYAKCILMENSPGADFEVWFYDGVKIHKTEDFIQVIEKTGKSYTLKSESEVNSLKEEIKMYMDHANEGHRICLALESIISEEERKTRSAPFFPIIIGRKPGSTSSPKALSPPPSVDSNYPTRERASFNRMVMHSAASPTQAPILNPSMVTNEGLGLTTTASGTDISSNSLKDCLPKSAQLLKSVFVKNVGWATQLTSGAVWVQFNDGSQLVVQAGVSSISYTSPNGQTTRYGENEKLPDYIKQKLQCLSSILLMFSNPTPNFH
chain 2: not shown
B2: Flag-PLK4 wt (polo-like kinase 4), full-length [human] / CEP152, endogenous [human (endogenous in HEK293T)] (parent complex)
chain 1: B1 chain 1
chain 2: MSLDFGSVALPVQNEDEEYDEEDYEREKELQQLLTDLPHDMLDDDLSSPELQYSDCSEDGTDGQPHHPEQLEMSWNEQMLPKSQSVNGYNEIQSLYAGEKCGNVWEENRSKTEDRHPVYHPEEGGDEGGSGYSPPSKCEQTDLYHLPENFRPYTNGQKQEFNNQATNVIKFSDPQWNHFQGPSCQGLEPYNKVTYKPYQSSAQNNGSPAQEITGSDTFEGLQQQFLGANENSAENMQIIQLQVLNKAKERQLENLIEKLNESERQIRYLNHQLVIIKDEKDGLTLSLRESQKLFQNGKEREIQLEAQIKALETQIQALKVNEEQMIKKSRTTEMALESLKQQLVDLHHSESLQRAREQHESIVMGLTKKYEEQVLSLQKNLDATVTALKEQEDICSRLKDHVKQLERNQEAIKLEKTEIINKLTRSLEESQKQCAHLLQSGSVQEVAQLQFQLQQAQKAHAMSANMNKALQEELTELKDEISLYESAAKLGIHPSDSEGELNIELTESYVDLGIKKVNWKKSKVTSIVQEEDPNEELSKDEFILKLKAEVQRLLGSNSMKRHLVSQLQNDLKDCHKKIEDLHQVKKDEKSIEVETKTDTSEKPKNQLWPESSTSDVVRDDILLLKNEIQVLQQQNQELKETEGKLRNTNQDLCNQMRQMVQDFDHDKQEAVDRCERTYQQHHEAMKTQIRESLLAKHALEKQQLFEAYERTHLQLRSELDKLNKEVTAVQECYLEVCREKDNLELTLRKTTEKEQQTQEKIKEKLIQQLEKEWQSKLDQTIKAMKKKTLDCGSQTDQVTTSDVISKKEMAIMIEEQKCTIQQNLEQEKDIAIKGAMKKLEIELELKHCENITKQVEIAVQNAHQRWLGELPELAEYQALVKAEQKKWEEQHEVSVNKRISFAVSEAKEKWKSELENMRKNILPGKELEEKIHSLQKELELKNEEVPVVIRAELAKARSEWNKEKQEEIHRIQEQNEQDYRQFLDDHRNKINEVLAAAKEDFMKQKTELLLQKETELQTCLDQSRREWTMQEAKRIQLEIYQYEEDILTVLGVLLSDTQKEHISDSEDKQLLEIMSTCSSKWMSVQYFEKLKGCIQKAFQDTLPLLVENADPEWKKRNMAELSKDSASQGTGQGDPGPAAGHHAQPLALQATEAEADKKKVLEIKDLCCGHCFQELEKAKQECQDLKGKLEKCCRHLQHLERKHKAVVEKIGEENNKVVEELIEENNDMKNKLEELQTLCKTPPRSLSAGAIENACLPCSGGALEELRGQYIKAVKKIKCDMLRYIQESKERAAEMVKAEVLRERQETARKMRKYYLICLQQILQDDGKEGAEKKIMNAASKLATMAKLLETPISSKSQSKTTQSALPLTSEMLIAVKKSKRNDVNQKIPCCIESKSNSVNTITRTLCEQAPKRRAACNLQRLLENSEHQSIKHVGSKETHLEFQFGDGSCKHLNSLPRNVSPEFVPCEGEGGFGLHKKKDLLSDNGSESLPHSAAYPFLGTLGNKPSPRCTPGPSESGCMHITFRDSNERLGLKVYKCNPLMESENAASEKSQGLDVQEPPVKDGGDLSDCLGWPSSSATLSFDSREASFVHGRPQGTLEIPSESVKSKQFSPSGYLSDTEESNMICQTMKCQRYQTPYLSEETTYLEPGKISVNCGHPSRHKADRLKSDFKKLSSTLPSSVCQQPSRKLIVPLSSQQDSGFDSPFVNLD
B3: Flag-PLK4 wt (polo-like kinase 4), full-length [human] / CEP192, endogenous [human (endogenous in HEK293T)] (parent complex)
chain 1: B1 chain 1
chain 2: MEDFRGIAEESFPSFLTNSLFGNSGILENVTLSSNLGLPVAVSTLARDRSSTDNRYPDIQASYLVEGRFSVPSGSSPGSQSDAEPRERLQLSFQDDDSISRKKSYVESQRLSNALSKQSALQMETAGPEEEPAGATESLQGQDLFNRASPLEQAQDSPIDFHLQSWMNNKEPKIVVLDAGKHFEDKTLKSDLSHTSLLENEKLILPTSLEDSSDDDIDDEMFYDDHLEAYFEQLAIPGMIYEDLEGPEPPEKGFKLPTNGLRQANENGSLNCKFQSENNSSLISLDSHSSETTHKESEESQVICLPGTSNSIGTGDSRRYTDGMLPFSSGTWGTEKEIENLKGIVPDLNSECASKDVLVKTLRAIDVKLNSDNFHDANANRGGFDLTDPVKQGAECPHQNKTVLHMDGCLDTETPTVSIQENVDVASLKPISDSGINFTDAIWSPTCERRTCECHESIEKNKDKTDLPQSVVYQNEEGRWVTDLAYYTSFNSKQNLNVSLSDEMNEDFRSGSEAFDLIAQDEEEFNKEHQFIQEENIDAHNTSVALGDTSWGATINYSLLRKSRSTSDLDKDDASYLRLSLGEFFAQRSEALGCLGGGNNVKRPSFGYFIRSPEKREPIALIRKSDVSRGNLEKEMAHLNHDLYSGDLNEQSQAQLSEGSITLQVEAVESTSQVDENDVTLTADKGKTEDTFFMSNKPQRYKDKLPDSGDSMLRISTIASAIAEASVNTDPSQLAAMIKALSNKTRDKTFQEDEKQKDYSHVRHFLPNDLEKSNGSNALDMEKYLKKTEVSRYESALENFSRASMSDTWDLSLPKEQTTQDIHPVDLSATSVSVRAPEENTAAIVYVENGESENQESFRTINSSNSVTNRENNSAVVDVKTCSIDNKLQDVGNDEKATSISTPSDSYSSVRNPRITSLCLLKDCEEIRDNRENQRQNECVSEISNSEKHVTFENHRIVSPKNSDLKNTSPEHGGRGSEDEQESFRPSTSPLSHSSPSEISGTSSSGCALESFGSAAQQQQPPCEQELSPLVCSPAGVSRLTYVSEPESSYPTTATDDALEDRKSDITSELSTTIIQGSPAALEERAMEKLREKVPFQNRGKGTLSSIIQNNSDTRKATETTSLSSKPEYVKPDFRWSKDPSSKSGNLLETSEVGWTSNPEELDPIRLALLGKSGLSCQVGSATSHPVSCQEPIDEDQRISPKDKSTAGREFSGQVSHQTTSENQCTPIPSSTVHSSVADMQNMPAAVHALLTQPSLSAAPFAQRYLGTLPSTGSTTLPQCHAGNATVCGFSGGLPYPAVAGEPVQNSVAVGICLGSNIGSGWMGTSSLCNPYSNTLNQNLLSTTKPFPVPSVGTNCGIEPWDSGVTSGLGSVRVPEELKLPHACCVGIASQTLLSVLNPTDRWLQVSIGVLSISVNGEKVDLSTYRCLVFKNKAIIRPHATEEIKVLFIPSSPGVFRCTFSVASWPCSTDAETIVQAEALASTVTLTAIAESPVIEVETEKKDVLDFGDLTYGGWKALPLKLINRTHATVPIRLIINANAVAWRCFTFSKESVRAPVEVAPCADVVTRLAGPSVVNHMMPASYDGQDPEFLMIWVLFHSPKKQISSSDILDSAEEFSAKVDIEVDSPNPTPVLRSVSLRARAGIARIHAPRDLQTMHFLAKVASSRKQHLPLKNAGNIEVYLDIKVPEQGSHFSVDPKNLLLKPGEEHEVIVSFTPKDPEACEERILKIFVQPFGPQYEVVLKGEVISSGSKPLSPGPCLDIPSILSNKQFLAWGGVPLGRTQLQKLALRNNSASTTQHLRLLIRGQDQDCFQLQNTFGSEQRLTSNCEIRIHPKEDIFISVLFAPTRLSCMLARLEIKQLGNRSQPGIKFTIPLSGYGGTSNLILEGVKKLSDSYMVTVNGLVPGKESKIVFSVRNTGSRAAFVKAVGFKDSQKKVLLDPKVLRIFPDKFVLKERTQENVTLIYNPSDRGINNKTATELSTVYLFGGDEISRQQYRRALLHKPEMIKQILPEHSVLQNINFVEAFQDELLVTEVYDLPQRPNDVQLFYGSMCKIILSVIGEFRDCISSREFLQPSSKASLESTSDLGASGKHGGNVSLDVLPVKGPQGSPLLSRAARPPLDQLASEEPWTVLPEHLILVAPSPCDMAKTGRFQIVNNSVRLLRFELCWPAHCLTVTPQHGCVAPESKLQILVSPNSSLSTKQSMFPWSGLIYIHCDDGQKKIVKVQIREDLTQVELLTRLTSKPFGILSPVSEPSVSHLVKPMTKPPSTKVEIRNKSITFPTTEPGETSESCLELENHGTTDVKWHLSSLAPPYVKGVDESGDVFRATYAAFRCSPISGLLESHGIQKVSITFLPRGRGDYAQFWDVECHPLKEPHMKHTLRFQLSGQSIEAENEPENACLSTDSLIKIDHLVKPRRQAVSEASARIPEQLDVTARGVYAPEDVYRFRPTSVGESRTLKVNLRNNSFITHSLKFLSPREPFYVKHSKYSLRAQHYINMPVQFKPKSAGKFEALLVIQTDEGKSIAIRLIGEALGKN

The variants in the first assay derive from B1. Nature of the assay: co-immunoprecipitation (IP against Flag tag, Western blot quantification); HEK293T cells, 48 h overexpression, N = 3; read off a plot.
With chain 1 K753A, the ratio to parent was roughly 1.6.
Consider chain 1 K748A, for which the ratio to parent is roughly 1.5.

Variants of B1 are the subject of another assay. Described as above. This is another data set of the same source.
As to chain 1 R691A, the ratio to parent is roughly 0.05.
chain 1 K608A: the ratio to parent was roughly 0.
As to chain 1 K699A, the ratio to parent is roughly 0.
Still for that read-out and setting: the result for chain 1 I602E reads roughly 0.01.

Variants of B1 are the subject of another assay. The description is as above. This is another data set of the same source.
chain 1 K41R: the ratio to parent was roughly 0.79.
Same read-out and setting: the result for chain 1 S285A, chain 1 T289A reads roughly 0.58.

In another assay the parent is B2. The assay is described as above.
Turning to chain 1 R691A, the ratio to parent is roughly 0.83.
In the case of chain 1 K608A, the ratio to parent is roughly 0.16.
As for chain 1 K699A, the ratio to parent was roughly 0.09.
In the case of chain 1 I602E, the ratio to parent is roughly 0.03.

The next assay covers variants of B3. The description is as above.
Turning to chain 1 I602E, the ratio to parent is roughly 0.01.
Still for that read-out and setting: the result for chain 1 R691A reads roughly 1.5.
Consider chain 1 K699A, for which the ratio to parent was roughly 0.1.
Still for that read-out and setting: the result for chain 1 K608A reads roughly 0.1.
